Laboratory results: publication PMC6920932

Experiments:
N#CCCCBr = assay: purified protein; settings: 100 mM glycine buffer pH 8.6, 37 °C, substrate inhibition
BrCCCBr = assay: purified protein; settings: 100 mM glycine buffer pH 8.6, 37 °C, cooperativity and partial substrate inhibition
[1] = biological target: haloalkane dehalogenase DmxA wild type from Marinobacter sp. ELB17 (Marinobacter sp. ELB17); assay: not stated; DmxA wt in solution; the discussion does not say which experiment gave the share of dimer
[2] = biological target: haloalkane dehalogenase DmxA wild type from Marinobacter sp. ELB17 (Marinobacter sp. ELB17); assay: native gel or EMSA; native polyacrylamide gel, 4 °C, 115 V, Coomassie stain; reduced (10 mM DTT, degassed, nitrogen) and non-reduced samples compared; LinB (34 kDa, monomer) and DbjA (66 kDa, dimer) as size standards
[3] = biological target: haloalkane dehalogenase DmxA wild type from Marinobacter sp. ELB17 (Marinobacter sp. ELB17); assay: SEC; gel filtration chromatography of purified DmxA wt; conditions not told in the text shown

Row | percent of the enzyme present as a dimer [1] | stoichiometry N [2] | stoichiometry N [3] | Substance | Km (N#CCCCBr) | kcat (N#CCCCBr) | Km (BrCCCBr) | kcat (BrCCCBr)
1 | – | – | – | DmxA (Marinobacter sp. ELB17) | 670 µM | 1.89 s⁻¹ | 30 µM | 2.61 s⁻¹
2 | < 30% | 2 | 2 | haloalkane dehalogenase DmxA wild type from Marinobacter sp. ELB17 (enzyme) | – | – | – | –
